# Read-outs that look alike come from different tables or passages of the source.
# B1: 3A5.040 (antibody, human IgG4 S228P, lambda)
# heavy: not shown
# light: SYVLTQPPSVSVAPGQTARITCGGNNIGSKNVYWYQQKPGQAPVLVVHDDSDRPSGIPERFSGSNSGNTATLTISRVEVGDEADYSCQVWDSSSDHVVFGGGTKLTVLGQPKAAPSVTLFPPSSEELQANKATLVCLISDFYPGAVTVAWKADSSPVKAGVETTTPSKQSNNKYAASSYLSLTPEQWKSHRSYSCQVTHEGSTVEKTVAPTECS
# What was measured:
# Assay in all cases: SPR
# recombinant human IL-5 [1] = target: T1, recombinant human IL-5 (human, UniProt P05113 20-134)
# recombinant human IL-5 [2] = target: T1, recombinant human IL-5; remark: listed apart in the source
# recombinant human IL-5 [3] = target: T1, recombinant human IL-5; remark: listed apart in the source
# recombinant human IL-5 [4] = target: T1, recombinant human IL-5; remark: listed apart in the source
# recombinant human IL-5 [5] = target: T1, recombinant human IL-5; remark: listed apart in the source
# recombinant human IL-5 [6] = target: T1, recombinant human IL-5; remark: listed apart in the source
# recombinant human IL-5 [7] = target: T1, recombinant human IL-5; remark: listed apart in the source
# recombinant human IL-5 [8] = target: T1, recombinant human IL-5; remark: listed apart in the source
# recombinant human IL-5 [9] = target: T1, recombinant human IL-5; remark: listed apart in the source
binder,measurement,setting,value
B1,Kd,recombinant human IL-5 [1],0.173 nM
same,koff,recombinant human IL-5 [1],0.000243 s⁻¹
same,kon,recombinant human IL-5 [1],1.41e+06 M⁻¹ s⁻¹
same,Kd,recombinant human IL-5 [2],0.168 nM
same,koff,recombinant human IL-5 [2],0.00023 s⁻¹
same,kon,recombinant human IL-5 [2],1.37e+06 M⁻¹ s⁻¹
same,Kd,recombinant human IL-5 [3],0.15 nM
same,koff,recombinant human IL-5 [3],0.000215 s⁻¹
same,kon,recombinant human IL-5 [3],1.43e+06 M⁻¹ s⁻¹
same,Kd,recombinant human IL-5 [4],0.2 nM
same,koff,recombinant human IL-5 [4],0.000284 s⁻¹
same,kon,recombinant human IL-5 [4],1.42e+06 M⁻¹ s⁻¹
same,Kd,recombinant human IL-5 [5],0.174 nM
same,koff,recombinant human IL-5 [5],0.000252 s⁻¹
same,kon,recombinant human IL-5 [5],1.45e+06 M⁻¹ s⁻¹
same,Kd,recombinant human IL-5 [6],0.168 nM
same,koff,recombinant human IL-5 [6],0.000239 s⁻¹
same,Kd,recombinant human IL-5 [7],0.193 nM
same,koff,recombinant human IL-5 [7],0.000285 s⁻¹
same,kon,recombinant human IL-5 [7],1.48e+06 M⁻¹ s⁻¹
same,Kd,recombinant human IL-5 [8],0.16 nM
same,koff,recombinant human IL-5 [8],0.000232 s⁻¹
same,kon,recombinant human IL-5 [8],1.45e+06 M⁻¹ s⁻¹
same,kon,recombinant human IL-5 [9],1.43e+06 M⁻¹ s⁻¹
